According to publication PMC3575409, “Identification of a Novel Protein-Protein Interaction Motif Mediating Interaction of GPCR-Associated Sorting Proteins with G Protein-Coupled Receptors” (PLoS ONE, 2013):
Values belong to the molecule of their own block, whether it stands above or below them.

How the values were obtained:
[1] = tested on: GST-fused CNR2 C-tail; test: GST-pull down, CNR2 C-tail; type: binding; details: central domain compared to full-length GASP-1
Procedure: (§1) cDNAs encoding the cytoplasmic C-tail of 14 GPCRs and 2 one-transmembrane receptors were cloned into the pGEX-2T prokaryotic expression vector downstream the GST sequence. […]
(§2) GST-fusion proteins were immobilized on glutathione-coupled Sepharose beads (GE Healthcare) for 1 h at 4°C and incubated with [^35S]-labelled in vitro translated GASP proteins or their truncated or mutated forms in ice-cold binding buffer containing: 20 mM Tris-HCl pH 7.4, 150 mM NaCl, 1 mM EDTA, 1 mM DTT, 10% glycerol and 1% Triton X-100. […] The supernatants were then analyzed by SDS-PAGE, the gels were stained with Coomassie blue to visualize GST-fusion proteins, dried and analyzed using a Phosphor-imager (Personal Molecular Imager FX, Biorad) to visualize [^35S]-labelled GASPs. Quantification was performed with the Quantity One software (Biorad). GST-pull down quantification data were analyzed using GraphPad Prism 4.03 (GraphPad Software). Quantifications presented are means of at least three independent experiments.

[2] = tested on: GST-fused TGFβ (type III transforming growth factor β receptor) C-tail; test: GST-pull down, TGFβ C-tail; type: binding; details: for interaction with TGFβ C-tail: non-GPCR control
Description: (§3) cDNAs encoding the cytoplasmic C-tail of 14 GPCRs and 2 one-transmembrane receptors were cloned into the pGEX-2T prokaryotic expression vector downstream the GST sequence. The following pGEX constructs were engineered: pGEX-DOR encoding residues 314–372 of the δ-opioid receptor (referring to Swiss-Prot accession number U10504), pGEX-MOR encoding residues 334–400 of the µ-opioid receptor (L29301), pGEX-KOR encoding residues 326–380 of the κ–opioid receptor (U17298), pGEX-ORL1 encoding residues 315–370 of the opioid receptor-like 1 (X77130), pGEX-M1 encoding residues 414–460 of the muscarinic M1 acetylcholine receptor (X52068), pGEX-M2 encoding residues 436–466 of the muscarinic M2 acetylcholine receptor (M16404), pGEX- ADRB1 encoding residues 373–477 of the β1 adrenergic receptor (J03019), pGEX-ADRB2 encoding residues 322–413 of the β2 adrenergic receptor (P07550), pGEX-CALCR encoding residues 407–490 of the calcitonin receptor (L00587), pGEX-CNR2 encoding residues 295–360 of the cannabinoid type 2 receptor (P34972), pGEX-5HT7 encoding residues 380–445 of the 5-hydroxytryptamine 7 receptor (L21195), pGEX-H2 encoding residues 284–349 of the histamine 2 receptor (S57565), pGEX-TXA2 encoding residues 304–343 of the α isoform of the thromboxane A2 receptor (D38081), pGEX-FZ4 encoding residues 493–537 of the frizzled 4 receptor (AB032417), pGEX-TGFβ encoding residues 805–849 of the type III transforming growth factor b receptor (L07594), pGEX-IGF1 encoding residues 1268–1367 of the insulin growth factor I receptor (X04434). Free GST was produced by using the pGEX-4T3 expression vector without insert. The same plasmid was used to clone the cDNA encoding a central domain of GASP-1, corresponding to amino acids 380 to 1073, downstream the GST sequence. All these plasmids were transformed into the Escherichia coli BL21 strain and expression was induced using 1mM of isopropylthiogalactoside for 2 h at 37°C. Bacteria were then pelleted, resuspended in PBS supplemented with cOmplete protease inhibitors (Roche), lysed at 1.5 kbar using a basic Z cell disrupter (constant system) and finally the lysates were cleared by centrifugation (10,000g, 15 min, 4°C).
(§4) cDNAs encoding GASP-1 and GASP-2 were cloned into the pcDNA3 eukaryotic expression vectors. cDNAs encoding GASP-3, -6, -7, and -9 were subcloned into pcDNA3.1 vectors. All the clones were controlled by DNA sequencing. The in vitro production was performed by using the TNT Quick-coupled Transcription/Translation T7 kit (Promega) in presence of [^35S]-Methionine according to the instructions from the manufacturer.
(§5) GST-fusion proteins were immobilized on glutathione-coupled Sepharose beads (GE Healthcare) for 1 h at 4°C and incubated with [^35S]-labelled in vitro translated GASP proteins or their truncated or mutated forms in ice-cold binding buffer containing: 20 mM Tris-HCl pH 7.4, 150 mM NaCl, 1 mM EDTA, 1 mM DTT, 10% glycerol and 1% Triton X-100. The mixture was incubated for 1 h at 4°C with gentle rocking. The beads were washed five times with the same ice-cold buffer, resuspended in 30 µl SDS-PAGE sample buffer, incubated 10 min at 65°C, and pelleted for 60 s at 3000 g. The supernatants were then analyzed by SDS-PAGE, the gels were stained with Coomassie blue to visualize GST-fusion proteins, dried and analyzed using a Phosphor-imager (Personal Molecular Imager FX, Biorad) to visualize [^35S]-labelled GASPs. Quantification was performed with the Quantity One software (Biorad). GST-pull down quantification data were analyzed using GraphPad Prism 4.03 (GraphPad Software). Quantifications presented are means of at least three independent experiments.

[3] = tested on: GST-fused GPCR C-tails; test: GST-pull down, GPCR C-tails; type: binding; details: for interaction with GPCR C-tails: twelve GPCR C-tails
Description: as §3, §4
as §5, with “experiments. […]” for “experiments.”

[4] = tested on: GST-fused IGF1 (insulin growth factor I receptor) C-tail; test: GST-pull down, IGF1 C-tail; type: binding; details: for interaction with IGF1 C-tail: non-GPCR control
Description: as §3, §4, §5

[5] = tested on: GST-fused DOR C-tail; test: GST-pull down, DOR C-tail; type: binding
Description: as §3, §4, §5

[6] = tested on: GST-fused FZ4 C-tail; test: GST-pull down, FZ4 C-tail; type: binding; details: strong = >10% of GASP input
Procedure: as §1, §2

[7] = tested on: GST-fused ADRB2 C-tail; test: GST-pull down, ADRB2 C-tail; type: binding; details: central domain compared to full-length GASP-1
Procedure: as §1, §2

[8] = tested on: GST-fused ADRB1 C-tail; test: GST-pull down, ADRB1 C-tail; type: binding
Description: as §3, §4, §5

[9] = tested on: GST-fused DOR C-tail; details: previous study; ref [6]; cited from earlier work
Description: We therefore hypothesized that this conserved carboxyl-terminal domain could be critical for the interaction of GASPs with GPCRs.

[10] = tested on: GST-fused M1 C-tail; test: GST-pull down, M1 C-tail; type: binding; details: percent of [35S]-GASP input; pH 7.4, 1 h at 4°C; three independent experiments
Description: as §3, §4, §5

[11] = tested on: GST-fused TXA2 C-tail; test: GST-pull down, TXA2 C-tail; type: binding; details: percent of [35S]-GASP input; pH 7.4, 1 h at 4°C; three independent experiments
Procedure: as §1, §2

[12] = tested on: GST-fused CALCR C-tail; test: GST-pull down, CALCR C-tail; type: binding; details: percent of [35S]-GASP input; pH 7.4, 1 h at 4°C; three independent experiments
Procedure: as §1, §2

[13] = tested on: GST-fused H2 (histamine H2 receptor) C-tail; test: GST-pull down, H2 C-tail; type: binding; details: percent of [35S]-GASP input; pH 7.4, 1 h at 4°C; three independent experiments
Procedure: as §1, §2

[14] = percent of [35S]-GASP input, pH 7.4, 1 h at 4°C, three independent experiments
[15] = percent of [35S]-GASP input, controls

- interaction with TGFβ C-tail [2]: no interaction was detected
- interaction with IGF1 C-tail [4]: no interaction was detected
B1: GASP-1: GPCR-associated sorting protein 1 (protein)
chain: MTGAEIESGAQVKPEKKPGEEVVGGAEIENDVPLVVRPKVRTQAQIMPGARPKNKSKVMPGASTKVETSAVGGARPKSKAKAIPVSRFKEEAQMWAQPRFGAERLSKTERNSQTNIIASPLVSTDSVLVAKTKYLSEDRELVNTDTESFPRRKAHYQAGFQPSFRSKEETNMGSWCCPRPTSKQEASPNSDFKWVDKSVSSLFWSGDEVTAKFHPGNRVKDSNRSMHMANQEANTMSRSQTNQELYIASSSGSEDESVKTPWFWARDKTNTWSGPREDPNSRSRFRSKKEVYVESSSGSEHEDHLESWFGAGKEAKFRSKMRAGKEANNRARHRAKREACIDFMPGSIDVIKKESCFWPEENANTFSRPMIKKEARARAMTKEEAKTKARARAKQEARSEEEALIGTWFWATDESSMADEASIESSLQVEDESIIGSWFWTEEEASMGTGASSKSRPRTDGERIGDSLFGAREKTSMKTGAEATSESILAADDEQVIIGSWFWAGEEVNQEAEEETIFGSWFWVIDAASVESGVGVSCESRTRSEEEEVIGPWFWSGEQVDIEAGIGEEARPGAEEETIFGSWFWAENQTYMDCRAETSCDTMQGAEEEEPIIGSWFWTRVEACVEGDVNSKSSLEDKEEAMIPCFGAKEEVSMKHGTGVRCRFMAGAEETNNKSCFWAEKEPCMYPAGGGSWKSRPEEEEDIVNSWFWSRKYTKPEAIIGSWLWATEESNIDGTGEKAKLLTEEETIINSWFWKEDEAISEATDREESRPEAEEGDIIGSWFWAGEEDRLEPAAETREEDRLAAEKEGIVGSWFGAREETIRREAGSCSKSSPKAEEEEVIIGSWFWEEEASPEAVAGVGFESKPGTEEEEITVGSWFWPEEEASIQAGSQAVEEMESETEEETIFGSWFWDGKEVSEEAGPCCVSKPEDDEEMIVESWFWSRDKAIKETGTVATCESKPENEEGAIVGSWFEAEDEVDNRTDNGSNCGSRTLADEDEAIVGSWFWAGDEAHFESNPSPVFRAICRSTCSVEQEPDPSRRPQSWEEVTVQFKPGPWGRVGFPSISPFRFPKEAASLFCEMFGGKPRNMVLSPEGEDQESLLQPDQPSPEFPFQYDPSYRSVQEIREHLRAKESTEPESSSCNCIQCELKIGSEEFEELLLLMEKIRDPFIHEISKIAMGMRSASQFTRDFIRDSGVVSLIETLLNYPSSRVRTSFLENMIRMAPPYPNLNIIQTYICKVCEETLAYSVDSPEQLSGIRMIRHLTTTTDYHTLVANYMSGFLSLLATGNAKTRFHVLKMLLNLSENLFMTKELLSAEAVSEFIGLFNREETNDNIQIVLAIFENIGNNIKKETVFSDDDFNIEPLISAFHKVEKFAKELQGKTDNQNDPEGDQEN
modifications: [35S]-methionine labelled
- interaction with CNR2 C-tail [1]: interact with GASP-1
- GASP input retained by GPCR C-tails ([3]; percent of GASP input): > 10%
- interaction with GPCR C-tails [3]: medium to strong interactions
- interaction with DOR C-tail ([5]; among the opioid receptors): significant interactions
- interaction with FZ4 C-tail [6]: strong interaction
- interaction with ADRB2 C-tail [7]: interact with GASP-1

B2: amino acids 924 to 1395: carboxyl-terminal fragment of GASP-1, contains 2 GASP motifs (protein)
chain: CCVSKPEDDEEMIVESWFWSRDKAIKETGTVATCESKPENEEGAIVGSWFEAEDEVDNRTDNGSNCGSRTLADEDEAIVGSWFWAGDEAHFESNPSPVFRAICRSTCSVEQEPDPSRRPQSWEEVTVQFKPGPWGRVGFPSISPFRFPKEAASLFCEMFGGKPRNMVLSPEGEDQESLLQPDQPSPEFPFQYDPSYRSVQEIREHLRAKESTEPESSSCNCIQCELKIGSEEFEELLLLMEKIRDPFIHEISKIAMGMRSASQFTRDFIRDSGVVSLIETLLNYPSSRVRTSFLENMIRMAPPYPNLNIIQTYICKVCEETLAYSVDSPEQLSGIRMIRHLTTTTDYHTLVANYMSGFLSLLATGNAKTRFHVLKMLLNLSENLFMTKELLSAEAVSEFIGLFNREETNDNIQIVLAIFENIGNNIKKETVFSDDDFNIEPLISAFHKVEKFAKELQGKTDNQNDPEGDQEN
modifications: [35S]-methionine labelled
- GASP-1 fragment input retained by ADRB1 C-tail ([8]; percent of input, data not shown): 5%
- interaction with the DOR C-tail [9]: strong interaction

- interaction with TGFβ C-tail [2]: No interaction was detected
- GASP input retained by control TGFβ C-tail [2, 15]: less than 1%
- interaction with IGF1 C-tail [4]: No interaction was detected
- GASP input retained by control IGF1 C-tail [4, 15]: less than 1%
- GASP input retained by H2 C-tail [13]: around 2%
B3: GASP-9: member of the second GASP subfamily, without GASP motif (protein)
chain: MSRVRDAGCVAAGIVIGAGAWYCVYKYTRGRDQTKKRMAKPKNRAVAGTGARARAGLRAGFTIDLGSGFSPPTPVRAEAEDRAQDEASALDTVGAEAVAPAASSAEAQSGAGSQAQEADGAGVGPKAESVVGAAMASAIAPPPGVTEALGAAEAPAMAGAPKVAEAPREAETSRAAVPPGTVVPTEAAAPTEVTEGPGVAAPTKVAEAPGVASPTEAAEAPVPATPTGAAAPTGAAESPGTSGSPRTAVVPGTSAAKKATPGAHTGAIPKATSATGAVPKGGGKGVTRSRNGGKGKGKKSKVEVDELGMGFRPGDGAAAAAAASANGGQAFLAEVPDSEEGESGWTDTESDSDSEPETQRRGRGRRPVAMQKRPFPYEIDEILGVRDLRKVLALLQKSDDPFIQQVALLTLSNNANYSCNQETIRKLGGLPIIANMINKTDPHIKEKALMAMNNLSENYENQGRLQVYMNKVMDDIMASNLNSAVQVVGLKFLTNMTITNDYQHLLVNSIANFFRLLSQGGGKIKVEILKILSNFAENPDMLKKLLSTQVPASFSSLYNSYVESEILINALTLFEIIYDNLRAEVFNYREFNKGSLFYLCTTSGVCVKKIRALANHHDLLVKVKVIKLVNKF
modifications: [35S]-methionine labelled
- GASP input retained by M1 C-tail [10]: around 2%
- GASP input retained by ADRB1 C-tail [8, 14]: around 2%
- GASP input retained by TXA2 C-tail [11]: around 2%
- interaction with GPCR C-tails [3]: very weak interactions
- GASP input retained by CALCR C-tail [12]: around 2%
- GASP input retained by DOR C-tail [5, 14]: around 2%
